B1: THAP1; numbered along this chain (parent)
chain: MVQSCSAYGCKNRYDKDKPVSFHKFPLTRPSLCKEWEAAVRRKNFKPTKYSSICSEHFTPDCFKRECNNKLLKENAVPTIFLCTEPHDKKEDLLEPQEQLPPPPLPPPVSQVDAAIGLLMPPLQTPVNLSVFCDHNYTVEDTMHQRKRIHQLEQQVEKLRKKLKTAQQRCRRQERQLEKLKEVVHFQKEKDDVSERGYVILPNDYFEIVEVPA

Variants of: B1
Assay: THAP1 transcriptional activity (GFP+/GFP- enrichment relative to wild-type constructs) (ratio to WT); higher = more THAP1 activity (PSMB5 reporter activation)
Settings: with PSMB5 promoter-GFP reporter
Outline: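 Variants were counted by Illumina sequencing of genomic DNA amplicons from BFP+ cells sorted into GFP-bright and GFP-dim bins five days after lentiviral transduction, in duplicate at MOI ~0.3. The library changed each of residues 2–213 of human THAP1 to all 20 amino acids and was introduced into THAP1-knockout HEK-293T cells with mClover3 knocked in at endogenous PSMB5. Activity equals the replicate-mean bright/dim read fold change over the mean of wild-type synonymous constructs.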

THAP1 transcriptional activity of substitutions, site by site:
H135: I 0.146 | C 0.22 | Y 0.217 | E 0.396 | W 0.177 | D 0.195 | A 0.145 | S 0.182 | G 0.152 | F 0.196 | L 0.0852 | Q 0.151 | T 0.111 | P 0.31 | V 0.227 | N 0.183 | R 0.0891 | M 0.0946
V131: W 0.261 | I 0.81 | G 0.244 | H 0.401 | A 0.451 | D 0.241 | L 0.533 | P 0.75 | Y 0.27 | F 0.399 | Q 0.386 | S 0.28 | N 0.494 | K 0.299 | E 0.239 | M 0.291 | T 0.276 | R 0.367 | C 0.427
F132: D 0.363 | S 0.452 | H 1.03 | Y 0.392 | C 0.597 | R 0.942 | G 0.49 | Q 0.462 | T 0.436 | W 0.329 | A 0.892 | N 0.635 | V 0.402 | M 1.06 | I 0.806 | P 0.285 | L 1.12 | E 0.425 | K 1
C133: H 2.5 | P 0.267 | G 0.883 | Y 0.913 | W 2.31 | N 1.15 | D 0.73 | T 0.872 | K 1.7 | M 0.928 | L 1.89 | I 1.29 | R 1.24 | Q 1.27 | V 2.05 | F 0.613 | A 0.667 | S 1.44 | E 0.936
N128: M 0.264 | W 0.283 | G 0.685 | K 0.645 | Q 0.507 | A 0.714 | H 0.446 | D 0.549 | R 0.823 | C 0.306 | V 0.346 | T 0.494 | F 0.259 | Y 0.306 | P 0.417 | S 0.395 | I 0.201 | E 0.856 | L 0.284
D134: K 0.141 | W 0.177 | T 0.354 | Y 0.166 | G 0.148 | S 0.277 | N 0.121 | R 0.265 | M 0.159 | I 0.153 | E 0.389 | H 0.203 | F 0.144 | V 0.123 | C 0.156 | A 0.125 | Q 0.0618 | P 0.296
T138: V 0.728 | F 0.626 | D 0.306 | H 0.837 | R 0.375 | Q 0.224 | L 0.13 | A 2.41 | S 1.07 | K 0.191 | E 0.215 | Y 0.424 | G 0.526 | N 0.196 | W 0.363 | C 2.63 | M 0.238 | I 0.274 | P 0.286
L129: V 0.92 | G 0.706 | Q 0.659 | C 0.646 | Y 0.843 | I 1.12 | F 1.16 | E 0.516 | S 1.2 | D 0.405 | N 1.4 | A 0.855 | K 1.95 | H 1 | W 1.7 | P 0.79 | T 1.05 | R 1.86 | M 0.714
P122: A 0.914 | C 0.319 | S 0.627 | I 0.39 | G 0.667 | F 0.156 | D 0.515 | T 0.614 | L 0.692 | H 0.355 | Y 0.254 | M 0.226 | W 0.159 | V 0.214 | Q 0.769 | K 0.728 | R 0.328 | E 0.885
L123: S 0.637 | R 1.45 | E 1.45 | K 0.809 | W 0.642 | M 0.859 | F 0.608 | N 1.54 | C 0.584 | G 0.957 | P 1.05 | I 0.913 | T 1.44 | H 1.24 | Y 0.693 | A 0.859 | Q 0.814 | V 1.01 | D 1.45
P121: Y 0.185 | N 0.457 | W 0.0793 | R 0.501 | Q 0.491 | S 0.441 | V 0.207
Q124: N 0.579 | P 0.631 | V 0.643 | H 0.399 | Y 0.592 | L 0.212 | M 0.487 | D 0.637 | A 0.569 | S 0.576 | I 0.516 | E 0.458 | K 0.879 | F 0.463 | W 0.257 | C 0.587 | R 0.787 | T 0.351 | G 0.787
T125: L 0.291 | C 0.57 | N 0.786 | I 0.437 | Q 0.85 | R 0.432 | M 0.329 | V 0.325 | E 1.1 | P 0.865 | F 0.212 | S 0.95 | W 0.351 | K 1.4 | A 1.2 | G 0.666 | D 0.713 | H 0.515 | Y 0.322
V139: I 0.897 | C 0.724 | F 0.996 | G 0.378 | H 0.721 | D 0.0939 | E 0.369 | A 0.763
S130: T 0.436 | F 0.246 | W 0.276 | K 0.625 | Y 0.1 | H 0.517 | M 0.164 | D 0.555 | N 0.651 | C 0.265 | A 0.566 | P 0.611 | E 0.224 | L 0.324 | Q 0.656 | R 0.271 | I 0.104 | G 0.946 | V 0.196
Y137: S 0.137 | F 0.161 | G 0.161 | W 0.0825 | P 0.117 | R 0.214 | E 0.152 | N 0.195 | V 0.0934 | D 0.172 | L 0.167 | I 0.109 | Q 0.186 | A 0.0848 | T 0.136 | C 0.147 | K 0.211 | H 0.111 | M 0.114
V127: G 0.609 | P 0.879 | A 0.82 | H 0.843 | F 0.642 | C 0.636 | L 0.775 | Y 0.411 | N 0.997 | M 0.396 | D 0.851 | Q 1.02 | E 0.897 | W 0.336 | T 0.875 | K 1.64 | I 0.501 | S 1.39 | R 1.19
N136: I 0.149 | C 0.164 | L 0.102 | Y 0.187 | W 0.0779 | A 0.208 | S 0.345 | R 0.364 | T 0.311 | G 0.109 | K 0.142 | M 0.134 | H 0.131 | E 0.14 | P 0.263 | Q 0.102 | D 0.153 | V 0.0965 | F 0.279
P126: N 0.551 | L 0.216 | Y 0.194 | I 0.18 | W 0.207 | K 0.562 | R 0.51 | T 0.484 | V 0.434 | E 0.744 | S 1.11 | A 0.618 | G 0.386 | H 0.531 | D 1.02 | F 0.178 | C 0.294 | Q 0.962
